Results from patent publication US20160052997A1.
Numbering of substitutions follows the chain as printed. Values joined by “and” are separate entries in the source; they are usually repeats but may differ in a detail not shown here. Equal values may be shown once. Read-outs that look alike come from different tables or passages of the source.

B1: CT120 (antibody, V domains shown)
VH: QVQLVQSGAEVKMPGSSVKVSCKTSGVFFSSHAISWVRQAPGQGLEWMGGISPMFGTTHYAQKFQGRVTITADQSTTTAYMELTSLTSEDTAVYYCARDGAGSYYPLNWFDPWGQGTLVTVSS
VL: EIVLTQSPATLSLSPGERATLSCRASENIWNNLAWYQQKPGQAPRLLISGASTGATGVPSRFRGSGSRTEFTLTISSLQSEDFAIYFCQQYNSWPRTFGPGTKVEIKR
B2: CT164 (antibody, V domains shown)
VH: QVQLVQSGVEVKKPGASVKVSCKTSGYPFSTYGVSWVRQAPGQGLEWVGWISGYTGITDYAQKSQGRVTLTTDASTATAFLELRSLRPDDTATYFCARDKVQGRVEAGSGGRHDYWGQGTLVIVSS
VL: EVVLTQSPGTLTLPPGDRATLSCRASHSVGSTYIAWFQQKSGQAPRRLIYGASNRATDIPDRFSGSGSGTDFTLTIRRLEPEDSAVYYCQQFSVSPWTFGQGTRVEIKR
B3: CT166 (antibody, V domains shown)
VH: B2 VH with V9A, P28S, S64F, S75T, A107V
VL: B2 VL with T12A, D17E, V29I, F37Y, T57S

Legend:
[1] = target: purified recombinant HA protein of H1N1 (A/Ohio/07/09) (Influenza A virus A/Ohio/07/09 (H1N1))
[2] = target: purified recombinant HA protein of H5N1 (A/Vietnam/1203/04) (Influenza A virus A/Vietnam/1203/04 (H5N1))
[3] = target: purified recombinant HA protein of H1N1 (A/Texas/05/09) (Influenza A virus A/Texas/05/09 (H1N1))
[4] = target: purified recombinant HA protein of H1N1 (A/Ohio/07/09) (Influenza A virus A/Ohio/07/09 (H1N1)); test: SPR, Biacore T200, HA captured via anti-6x his tag antibody, 25 C
[5] = target: purified recombinant HA protein of H5N1 (A/Vietnam/1203/04) (Influenza A virus A/Vietnam/1203/04 (H5N1)); test: as above
[6] = target: purified recombinant HA protein of H1N1 (A/Texas/05/09) (Influenza A virus A/Texas/05/09 (H1N1)); test: as above
[7] = target: HA of A/Hong Kong/68 (H3N2) virus (Influenza A virus A/Hong Kong/68 (H3N2)); test: cell-based or functional assay
[8] = target: HA of A/Wisconsin/67/05 (H3N2) virus (Influenza A virus A/Wisconsin/67/05 (H3N2)); test: cell-based or functional assay
[9] = target: HA of A/Brisbane/10/07 (H3N2) virus (Influenza A virus A/Brisbane/10/07 (H3N2)); test: cell-based or functional assay

Binder	Kd [1] [nM]	Kd [2] [nM]	Kd [3] [nM]	Kd [4]	koff [4]	kon [4]	Kd [5]	koff [5] [s⁻¹]	Kd [6]	koff [6]	kon [6]	MN test: lowest antibody concentration at which no virus antigen was detected [7] [µg/mL]	MN test: lowest antibody concentration at which no virus antigen was detected [8] [µg/mL]	MN test: lowest antibody concentration at which no virus antigen was detected [9] [µg/mL]
B1	2	3.97	1.76	1.76 nM and 2.24 nM	0.000663 s⁻¹ and 0.000789 s⁻¹	376000 M⁻¹ s⁻¹ and 352000 M⁻¹ s⁻¹	3.74 nM and 4.2 nM	3.88	1.97 nM and 1.55 nM	0.00119 s⁻¹ and 0.00098 s⁻¹	606000 M⁻¹ s⁻¹ and 632000 M⁻¹ s⁻¹	–	–	–
B2	–	–	–	–	–	–	–	–	–	–	–	1.25	2.5	0.625
B3	–	–	–	–	–	–	–	–	–	–	–	2.5	5	1.25
